# Results as given in publication PMC4460075, “ULK2 Ser 1027 Phosphorylation by PKA Regulates Its Nuclear Localization Occurring through Karyopherin Beta 2 Recognition of a PY-NLS Motif” (PLoS ONE, 2015).
# Biological target: T1, karyopherin beta 2 (Kapβ2), endogenous (human (endogenous in HEK293), UniProt Q92973 1-898)
# T1 sequence (looked up): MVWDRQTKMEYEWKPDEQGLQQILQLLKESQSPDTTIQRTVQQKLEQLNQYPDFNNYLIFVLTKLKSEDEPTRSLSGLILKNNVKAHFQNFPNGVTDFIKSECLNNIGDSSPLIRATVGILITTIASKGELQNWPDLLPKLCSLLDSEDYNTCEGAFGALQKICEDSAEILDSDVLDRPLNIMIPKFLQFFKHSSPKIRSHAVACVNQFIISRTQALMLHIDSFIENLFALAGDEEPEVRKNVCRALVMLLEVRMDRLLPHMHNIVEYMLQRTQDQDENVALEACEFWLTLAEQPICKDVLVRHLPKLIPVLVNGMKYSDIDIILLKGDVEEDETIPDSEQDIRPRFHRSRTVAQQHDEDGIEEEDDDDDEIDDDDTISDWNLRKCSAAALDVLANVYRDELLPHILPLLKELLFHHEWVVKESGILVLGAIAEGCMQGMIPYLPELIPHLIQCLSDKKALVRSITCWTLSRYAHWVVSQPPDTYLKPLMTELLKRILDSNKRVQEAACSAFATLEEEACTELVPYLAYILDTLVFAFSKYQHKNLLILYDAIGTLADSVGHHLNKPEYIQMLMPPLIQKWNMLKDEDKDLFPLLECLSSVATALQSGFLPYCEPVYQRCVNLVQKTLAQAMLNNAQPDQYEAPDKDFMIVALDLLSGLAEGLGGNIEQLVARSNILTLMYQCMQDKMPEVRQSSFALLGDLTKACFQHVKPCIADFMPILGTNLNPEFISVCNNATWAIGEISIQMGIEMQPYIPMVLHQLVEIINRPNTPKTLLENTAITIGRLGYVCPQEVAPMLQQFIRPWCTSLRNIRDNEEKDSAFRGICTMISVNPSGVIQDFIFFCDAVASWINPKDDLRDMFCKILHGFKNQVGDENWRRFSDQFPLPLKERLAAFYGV
# Assay: cell-based or functional assay
binder,measurement,value
"EGFP-ULK2 WT (natural protein, human, UniProt Q8IYT8 1-1036, looked up) MEVVGDFEYSKRDLVGHGAFAVVFRGRHRQKTDWEVAIKSINKKNLSKSQILLGKEIKILKELQHENIVALYDVQELPNSVFLVMEYCNGGDLADYLQAKGTLSEDTIRVFLHQIAAAMRILHSKGIIHRDLKPQNILLSYANRRKSSVSGIRIKIADFGFARYLHSNMMAATLCGSPMYMAPEVIMSQHYDAKADLWSIGTVIYQCLVGKPPFQANSPQDLRMFYEKNRSLMPSIPRETSPYLANLLLGLLQRNQKDRMDFEAFFSHPFLEQGPVKKSCPVPVPMYSGSVSGSSCGSSPSCRFASPPSLPDMQHIQEENLSSPPLGPPNYLQVSKDSASTSSKNSSCDTDDFVLVPHNISSDHSCDMPVGTAGRRASNEFLVCGGQCQPTVSPHSETAPIPVPTQIRNYQRIEQNLTSTASSGTNVHGSPRSAVVRRSNTSPMGFLRPGSCSPVPADTAQTVGRRLSTGSSRPYSPSPLVGTIPEQFSQCCCGHPQGHDSRSRNSSGSPVPQAQSPQSLLSGARLQSAPTLTDIYQNKQKLRKQHSDPVCPSHTGAGYSYSPQPSRPGSLGTSPTKHLGSSPRSSDWFFKTPLPTIIGSPTKTTAPFKIPKTQASSNLLALVTRHGPAEEQSKDGNEPRECAHCLLVQGSERQRAEQQSKAVFGRSVSTGKLSDQQGKTPICRHQGSTDSLNTERPMDIAPAGACGGVLAPPAGTAASSKAVLFTVGSPPHSAAAPTCTHMFLRTRTTSVGPSNSGGSLCAMSGRVCVGSPPGPGFGSSPPGAEAAPSLRYVPYGASPPSLEGLITFEAPELPEETLMEREHTDTLRHLNVMLMFTECVLDLTAMRGGNPELCTSAVSLYQIQESVVVDQISQLSKDWGRVEQLVLYMKAAQLLAASLHLAKAQIKSGKLSPSTAVKQVVKNLNERYKFCITMCKKLTEKLNRFFSDKQRFIDEINSVTAEKLIYNCAVEMVQSAALDEMFQQTEDIVYRYHKAALLLEGLSRILQDPADIENVHKYKCSIERRLSALCHSTATV","nuclear-to-total fluorescence ratio (Fn/t) of EGFP-ULK2 WT in HEK293 cells, confocal microscopy (Fig 3D)",44.5
"Uncoordinated 51-like kinase 2 (ULK2), endogenous (natural protein, human (endogenous in HEK293), UniProt Q8IYT8 1-1036, looked up) MEVVGDFEYSKRDLVGHGAFAVVFRGRHRQKTDWEVAIKSINKKNLSKSQILLGKEIKILKELQHENIVALYDVQELPNSVFLVMEYCNGGDLADYLQAKGTLSEDTIRVFLHQIAAAMRILHSKGIIHRDLKPQNILLSYANRRKSSVSGIRIKIADFGFARYLHSNMMAATLCGSPMYMAPEVIMSQHYDAKADLWSIGTVIYQCLVGKPPFQANSPQDLRMFYEKNRSLMPSIPRETSPYLANLLLGLLQRNQKDRMDFEAFFSHPFLEQGPVKKSCPVPVPMYSGSVSGSSCGSSPSCRFASPPSLPDMQHIQEENLSSPPLGPPNYLQVSKDSASTSSKNSSCDTDDFVLVPHNISSDHSCDMPVGTAGRRASNEFLVCGGQCQPTVSPHSETAPIPVPTQIRNYQRIEQNLTSTASSGTNVHGSPRSAVVRRSNTSPMGFLRPGSCSPVPADTAQTVGRRLSTGSSRPYSPSPLVGTIPEQFSQCCCGHPQGHDSRSRNSSGSPVPQAQSPQSLLSGARLQSAPTLTDIYQNKQKLRKQHSDPVCPSHTGAGYSYSPQPSRPGSLGTSPTKHLGSSPRSSDWFFKTPLPTIIGSPTKTTAPFKIPKTQASSNLLALVTRHGPAEEQSKDGNEPRECAHCLLVQGSERQRAEQQSKAVFGRSVSTGKLSDQQGKTPICRHQGSTDSLNTERPMDIAPAGACGGVLAPPAGTAASSKAVLFTVGSPPHSAAAPTCTHMFLRTRTTSVGPSNSGGSLCAMSGRVCVGSPPGPGFGSSPPGAEAAPSLRYVPYGASPPSLEGLITFEAPELPEETLMEREHTDTLRHLNVMLMFTECVLDLTAMRGGNPELCTSAVSLYQIQESVVVDQISQLSKDWGRVEQLVLYMKAAQLLAASLHLAKAQIKSGKLSPSTAVKQVVKNLNERYKFCITMCKKLTEKLNRFFSDKQRFIDEINSVTAEKLIYNCAVEMVQSAALDEMFQQTEDIVYRYHKAALLLEGLSRILQDPADIENVHKYKCSIERRLSALCHSTATV","nuclear-to-total fluorescence ratio (Fn/t) of endogenous ULK2 in FSK-treated HEK293 cells (normal DMEM-grown cells: 49.36+/−4.90), confocal microscopy (Fig 6Q)",52.7
same,"nuclear-to-total fluorescence ratio (Fn/t) of endogenous ULK2 in H89-treated HEK293 cells (normal DMEM-grown cells: 49.36+/−4.90), confocal microscopy (Fig 6Q)",35.8
"EGFP-ULK2 PY-NLS mutant (P794A) (natural protein, human, UniProt Q8IYT8 1-1036, looked up) MEVVGDFEYSKRDLVGHGAFAVVFRGRHRQKTDWEVAIKSINKKNLSKSQILLGKEIKILKELQHENIVALYDVQELPNSVFLVMEYCNGGDLADYLQAKGTLSEDTIRVFLHQIAAAMRILHSKGIIHRDLKPQNILLSYANRRKSSVSGIRIKIADFGFARYLHSNMMAATLCGSPMYMAPEVIMSQHYDAKADLWSIGTVIYQCLVGKPPFQANSPQDLRMFYEKNRSLMPSIPRETSPYLANLLLGLLQRNQKDRMDFEAFFSHPFLEQGPVKKSCPVPVPMYSGSVSGSSCGSSPSCRFASPPSLPDMQHIQEENLSSPPLGPPNYLQVSKDSASTSSKNSSCDTDDFVLVPHNISSDHSCDMPVGTAGRRASNEFLVCGGQCQPTVSPHSETAPIPVPTQIRNYQRIEQNLTSTASSGTNVHGSPRSAVVRRSNTSPMGFLRPGSCSPVPADTAQTVGRRLSTGSSRPYSPSPLVGTIPEQFSQCCCGHPQGHDSRSRNSSGSPVPQAQSPQSLLSGARLQSAPTLTDIYQNKQKLRKQHSDPVCPSHTGAGYSYSPQPSRPGSLGTSPTKHLGSSPRSSDWFFKTPLPTIIGSPTKTTAPFKIPKTQASSNLLALVTRHGPAEEQSKDGNEPRECAHCLLVQGSERQRAEQQSKAVFGRSVSTGKLSDQQGKTPICRHQGSTDSLNTERPMDIAPAGACGGVLAPPAGTAASSKAVLFTVGSPPHSAAAPTCTHMFLRTRTTSVGPSNSGGSLCAMSGRVCVGSPPGPGFGSSPPGAEAAPSLRYVAYGASPPSLEGLITFEAPELPEETLMEREHTDTLRHLNVMLMFTECVLDLTAMRGGNPELCTSAVSLYQIQESVVVDQISQLSKDWGRVEQLVLYMKAAQLLAASLHLAKAQIKSGKLSPSTAVKQVVKNLNERYKFCITMCKKLTEKLNRFFSDKQRFIDEINSVTAEKLIYNCAVEMVQSAALDEMFQQTEDIVYRYHKAALLLEGLSRILQDPADIENVHKYKCSIERRLSALCHSTATV","nuclear-to-total fluorescence ratio (Fn/t) of the EGFP-ULK2 PY-NLS (P794A) mutant in HEK293 cells, confocal microscopy (Fig 3D)",17.1
"EGFP-ULK2 P242A mutant (natural protein, human, UniProt Q8IYT8 1-1036, looked up) MEVVGDFEYSKRDLVGHGAFAVVFRGRHRQKTDWEVAIKSINKKNLSKSQILLGKEIKILKELQHENIVALYDVQELPNSVFLVMEYCNGGDLADYLQAKGTLSEDTIRVFLHQIAAAMRILHSKGIIHRDLKPQNILLSYANRRKSSVSGIRIKIADFGFARYLHSNMMAATLCGSPMYMAPEVIMSQHYDAKADLWSIGTVIYQCLVGKPPFQANSPQDLRMFYEKNRSLMPSIPRETSAYLANLLLGLLQRNQKDRMDFEAFFSHPFLEQGPVKKSCPVPVPMYSGSVSGSSCGSSPSCRFASPPSLPDMQHIQEENLSSPPLGPPNYLQVSKDSASTSSKNSSCDTDDFVLVPHNISSDHSCDMPVGTAGRRASNEFLVCGGQCQPTVSPHSETAPIPVPTQIRNYQRIEQNLTSTASSGTNVHGSPRSAVVRRSNTSPMGFLRPGSCSPVPADTAQTVGRRLSTGSSRPYSPSPLVGTIPEQFSQCCCGHPQGHDSRSRNSSGSPVPQAQSPQSLLSGARLQSAPTLTDIYQNKQKLRKQHSDPVCPSHTGAGYSYSPQPSRPGSLGTSPTKHLGSSPRSSDWFFKTPLPTIIGSPTKTTAPFKIPKTQASSNLLALVTRHGPAEEQSKDGNEPRECAHCLLVQGSERQRAEQQSKAVFGRSVSTGKLSDQQGKTPICRHQGSTDSLNTERPMDIAPAGACGGVLAPPAGTAASSKAVLFTVGSPPHSAAAPTCTHMFLRTRTTSVGPSNSGGSLCAMSGRVCVGSPPGPGFGSSPPGAEAAPSLRYVPYGASPPSLEGLITFEAPELPEETLMEREHTDTLRHLNVMLMFTECVLDLTAMRGGNPELCTSAVSLYQIQESVVVDQISQLSKDWGRVEQLVLYMKAAQLLAASLHLAKAQIKSGKLSPSTAVKQVVKNLNERYKFCITMCKKLTEKLNRFFSDKQRFIDEINSVTAEKLIYNCAVEMVQSAALDEMFQQTEDIVYRYHKAALLLEGLSRILQDPADIENVHKYKCSIERRLSALCHSTATV","nuclear-to-total fluorescence ratio (Fn/t) of the EGFP-ULK2 P242A mutant in HEK293 cells, confocal microscopy (Fig 3D)",67.2
